These results are taken from publication PMC7044312, “NMT1 and NMT2 are lysine myristoyltransferases regulating the ARF6 GTPase cycle” (Nature Communications, 2020).

The assay deals with T1, NMT1 (115–496), NMT catalytic domain (human, UniProt P30419 115-496).
T1 construct: human N-myristoyltransferase 1, catalytic domain, residues 115-496; Crystallised with myristoyl-CoA; also called N-myristoyltransferase 1; source: E. coli BL21, purified (Ni-NTA, PreScission cleavage, Superdex 75)
T1 sequence (looked up): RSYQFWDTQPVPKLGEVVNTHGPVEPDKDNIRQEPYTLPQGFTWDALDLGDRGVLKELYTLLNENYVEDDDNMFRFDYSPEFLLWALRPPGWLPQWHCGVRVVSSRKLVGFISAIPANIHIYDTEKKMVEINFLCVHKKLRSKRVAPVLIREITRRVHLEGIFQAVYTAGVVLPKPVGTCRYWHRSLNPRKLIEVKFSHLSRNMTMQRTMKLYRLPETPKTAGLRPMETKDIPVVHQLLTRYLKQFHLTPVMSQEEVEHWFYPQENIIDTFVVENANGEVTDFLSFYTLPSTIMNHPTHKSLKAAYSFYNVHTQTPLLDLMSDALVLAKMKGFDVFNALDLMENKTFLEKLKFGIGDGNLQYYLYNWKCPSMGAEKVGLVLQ
Description: crystal structure; NMT1 7.5 mg/ml in 25 mM Tris-HCl pH 7.5, 120 mM NaCl, with 0.3 mM myristoyl-CoA and 0.3 mM AcKVLSKIF; well 18% PEG 8000, 100 mM NaCl, 100 mM sodium citrate pH 5.6, 100 mM MgCl2. The following applies: both partners purified.

No end group written: not given here.

B1: Ac-KVLSKIF peptide (peptide)
peptide: Ac-KVLSKIF
modifications: also: myristoyl on Lys3 side chain (residue 3 is L), formed in crystal
notes: derived from the N-terminus of ARF6, G2 deleted; also called acetyl-KVLSKIF; myristoyl-AcKVLSKIF; source: synthetic peptide (synthesized in-house)
For B1, the binding result is on record as “binds”.
